Results reported in patent US10472401B2, “Peptides and combination of peptides for use in immunotherapy against ovarian cancer and other cancers” (immatics biotechnologies GmbH, priority 2015, dated 2019).

What was measured:
[1] = system: CD8+ T cells; assay: In vitro immunogenicity: priming of CD8+ T cells with aAPCs loaded with peptide/MHC and anti-CD28, multimer staining; assay type: cell-based, human; conditions: for Wells positive [%]: HLA-A*02 restricted peptides, percentage of positive wells (among evaluable); for wells: positive wells
Text: In order to obtain information regarding the immunogenicity of the TUMAPs of the present invention, the inventors performed investigations using an in vitro T-cell priming assay based on repeated stimulations of CD8+ T cells with artificial antigen presenting cells (aAPCs) loaded with peptide/MHC complexes and anti-CD28 antibody.
In order to perform in vitro stimulations by artificial antigen presenting cells loaded with peptide-MHC complex (pMHC) and anti-CD28 antibody, the inventors first isolated CD8+ T cells from fresh HLA-A*02 leukopheresis products via positive selection using CD8 microbeads (Miltenyi Biotec, Bergisch-Gladbach, Germany) of healthy donors obtained from the University clinics Mannheim, Germany, after informed consent.
PBMCs and isolated CD8+ lymphocytes were incubated in T-cell medium (TCM) until use consisting of RPMI-Glutamax (Invitrogen, Karlsruhe, Germany) supplemented with 10% heat inactivated human AB serum (PAN-Biotech, Aidenbach, Germany), 100 U/ml Penicillin/100 μg/ml Streptomycin (Cambrex, Cologne, Germany), 1 mM sodium pyruvate (CC Pro, Oberdorla, Germany), 20 μg/ml Gentamycin (Cambrex). 2.5 ng/ml IL-7 (PromoCell, Heidelberg, Germany) and 10 U/ml IL-2 (Novartis Pharma, Nürnberg, Germany) were also added to the TCM at this step.
Generation of pMHC/anti-CD28 coated beads, T-cell stimulations and readout was performed in a highly defined in vitro system using four different pMHC molecules per stimulation condition and 8 different pMHC molecules per readout condition.
The purified co-stimulatory mouse IgG2a anti human CD28 Ab 9.3 (Jung et al., 1987) was chemically biotinylated using Sulfo-N-hydroxysuccinimidobiotin as recommended by the manufacturer (Perbio, Bonn, Germany). Beads used were 5.6 μm diameter streptavidin coated polystyrene particles (Bangs Laboratories, Illinois, USA).
pMHC used for positive and negative control stimulations were A*0201/MLA-001 (peptide […] (SEQ ID NO. 664) from modified Melan-A/MART-1) and A*0201/DDX5-001 ([…] from DDX5, SEQ ID NO. 665), respectively.
800.000 beads/200 μl were coated in 96-well plates in the presence of 4×12.5 ng different biotin-pMHC, washed and 600 ng biotin anti-CD28 were added subsequently in a volume of 200 μl. Stimulations were initiated in 96-well plates by co-incubating […] CD8+ T cells with 2×10^5 washed coated beads in 200 μl TCM supplemented with 5 ng/ml IL-12 (PromoCell) for 3 days at 37° C. Half of the medium was then exchanged by fresh TCM supplemented with 80 U/ml IL-2 and incubating was continued for 4 days at 37° C. This stimulation cycle was performed for a total of three times. For the pMHC multimer readout using 8 different pMHC molecules per condition, a two-dimensional combinatorial coding approach was used as previously described (Andersen et al., 2012) with minor modifications encompassing coupling to 5 different fluorochromes. Finally, multimeric analyses were performed by staining the cells with Live/dead near IR dye (Invitrogen, Karlsruhe, Germany), CD8-FITC antibody clone SK1 (BD, Heidelberg, Germany) and fluorescent pMHC multimers. For analysis, a BD LSRII SORP cytometer equipped with appropriate lasers and filters was used. Peptide specific cells were calculated as percentage of total CD8+ cells. Evaluation of multimeric analysis was done using the FlowJo software (Tree Star, Oregon, USA). In vitro priming of specific multimer+ CD8+ lymphocytes was detected by comparing to negative control stimulations.
Exemplary flow cytometry results after TUMAP-specific multimer staining for two peptides of the invention are shown in FIG. 3 together with corresponding negative controls.

[2] = target: HLA-A*02:01 (Homo sapiens, UniProt P04439, D140Y/D185E/D98H/E176V/E277Q/G131W/G231S/I119V/I121R/I166T/I218V/L300P/L318F/N151K/N90K/P208A/P217A/Q86G/Q94H/R138H/R169H/T345S); assay: MHC binding assay (UV-ligand exchange, ELISA of stabilized MHC complexes); conditions: MHC class I binding score; binding to HLA-A*02:01 ranged by peptide exchange yield (UV-ligand exchange, ELISA)
How it was run: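 Binding scored as exchange yield, detected via β2m of stabilized complexes in an HRP/TMB ELISA read at 450 nm after streptavidin capture of 100-fold diluted monomers for 1 h at 37 °C. Complexes came from UV irradiation cleaving a photolabile peptide, exchanged for the candidate.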

Row | Substance | Wells positive [%] [1] | Peptide exchange [2] | also measured
1 | 3 (SLASKLTTL; listed as Homo sapiens) [compound 3] | ″+″ (<20% = +) | ″++++″ (≥75% = ++++) | –
2 | 319 (SLEPQIQPV; listed as Homo sapiens) [compound 319] | ″+″ (<20% = +) | ″++″ (≥20% = ++) | –
3 | 2 (SLLEADPFL; listed as Homo sapiens) [compound 2] | ″+″ (<20% = +) | ″+++″ (≥50% = +++) | –
4 | 443 (GLWEIENNPTV; listed as Homo sapiens) [compound 443] | ″+″ (<20% = +) | ″+++″ (≥50% = +++) | –
5 | 141 (YLDFSNNRL; listed as Homo sapiens) [compound 141] | ″+″ (<20% = +) | ″++″ (≥20% = ++) | –
6 | 38 (FLLEDDIHVS; listed as Homo sapiens) [compound 38] | ″+″ (<20% = +) | ″+++″ (≥50% = +++) | –
7 | 166 (YLNHLEPPV; listed as Homo sapiens) [compound 166] | ″++++″ (> = 70% = ++++) | ″+++″ (≥50% = +++) | –
8 | 499 (KIFDIDEAEEGV; listed as Homo sapiens) [compound 499] | ″+″ (<20% = +) | ″++″ (≥20% = ++) | –
9 | 79 (SLFIGEKAVLL; listed as Homo sapiens) [compound 79] | ″+″ (<20% = +) | ″+++″ (≥50% = +++) | –
10 | 60 (SLTIDGIYYV; listed as Homo sapiens) [compound 60] | ″++++″ (> = 70% = ++++) | ″++++″ (≥75% = ++++) | –
11 | 659 (ILFPDIIARA; listed as Homo sapiens) [compound 659] | – | – | wells ([1]; HLA class I peptides): + (<20% = +)
12 | 489 (KMWEELPEVV; listed as Homo sapiens) [compound 489] | ″+″ (<20% = +) | ″+++″ (≥50% = +++) | –
13 | 143 (LLLDITPEI; listed as Homo sapiens) [compound 143] | ″+″ (<20% = +) | ″++++″ (≥75% = ++++) | –
14 | 36 (YVLEDLEVTV; listed as Homo sapiens) [compound 36] | ″+″ (<20% = +) | ″++″ (≥20% = ++) | –
15 | 48 (ALAELYEDEV; listed as Homo sapiens) [compound 48] | ″+″ (<20% = +) | ″+++″ (≥50% = +++) | –
16 | 8 (FTLGNVVGMYL; listed as Homo sapiens) [compound 8] | ″+″ (<20% = +) | ″++++″ (≥75% = ++++) | –
17 | 652 (TLWYRAPEV; listed as Homo sapiens) [compound 652] | – | – | donors ([1]; HLA class I peptides, positive donors): ++++ (> = 70% = ++++)
18 | 11 (KIFEMLEGV; listed as Homo sapiens) [compound 11] | ″+″ (<20% = +) | ″+++″ (≥50% = +++) | –
19 | 150 (RLWEEGEELEL; listed as Homo sapiens) [compound 150] | ″+″ (<20% = +) | ″+++″ (≥50% = +++) | –
20 | 56 (KLYEGIPVLL; listed as Homo sapiens) [compound 56] | ″+″ (<20% = +) | ″++++″ (≥75% = ++++) | –
21 | 199 (ALQDVPLSSV; listed as Homo sapiens) [compound 199] | ″+″ (<20% = +) | ″+++″ (≥50% = +++) | –
22 | 384 (ILFANPNIFV; listed as Homo sapiens) [compound 384] | ″+″ (<20% = +) | ″+++″ (≥50% = +++) | –
23 | 663 (KIQEMQHFL; listed as Homo sapiens) [compound 663] | – | – | wells ([1]; HLA class I peptides): + (<20% = +)
24 | 662 (KIQEILTQV; listed as Homo sapiens) [compound 662] | – | – | wells ([1]; HLA class I peptides): + (<20% = +)
25 | 43 (VLSSLEINI; listed as Homo sapiens) [compound 43] | – | ″++″ (≥20% = ++) | –
26 | 104 (STMEQNFLL; listed as Homo sapiens) [compound 104] | – | ″++++″ (≥75% = ++++) | –

Row | Substance | Wells positive [%] [1] | Peptide exchange [2] | also measured
27 | 561 (YLQLTQSEL; listed as Homo sapiens) [compound 561] | – | ″+++″ (≥50% = +++) | –
28 | 614 (LLLPDQPPYHL; listed as Homo sapiens) [compound 614] | – | ″+++″ (≥50% = +++) | –
29 | 622 (RLLGEEVVRVLQA; listed as Homo sapiens) [compound 622] | – | ″+++″ (≥50% = +++) | –
30 | 81 (FLFSQLQYL; listed as Homo sapiens) [compound 81] | – | ″++″ (≥20% = ++) | –
31 | 602 (YLLEQIKLIEV; listed as Homo sapiens) [compound 602] | – | ″++++″ (≥75% = ++++) | –
32 | 66 (FLDENIGGVAV; listed as Homo sapiens) [compound 66] | – | ″+++″ (≥50% = +++) | –
33 | 311 (RLYTGMHTV; listed as Homo sapiens) [compound 311] | – | ″+++″ (≥50% = +++) | –
34 | 556 (FLTDLEDLTL; listed as Homo sapiens) [compound 556] | – | ″+++″ (≥50% = +++) | –
35 | 584 (ALAEVAAMENV; listed as Homo sapiens) [compound 584] | – | ″+++″ (≥50% = +++) | –
36 | 355 (SIQQSIERLLV; listed as Homo sapiens) [compound 355] | – | ″++″ (≥20% = ++) | –
37 | 343 (SLLEVNEESTV; listed as Homo sapiens) [compound 343] | – | ″+++″ (≥50% = +++) | –
38 | 108 (ALFPGVALLLA; listed as Homo sapiens) [compound 108] | – | ″++++″ (≥75% = ++++) | –
39 | 89 (YILPTETIYV; listed as Homo sapiens) [compound 89] | – | ″++++″ (≥75% = ++++) | –
40 | 327 (GLAPFTEGISFV; listed as Homo sapiens) [compound 327] | – | ″+++″ (≥50% = +++) | –
41 | 178 (ALTEIAFVV; listed as Homo sapiens) [compound 178] | – | ″++++″ (≥75% = ++++) | –
42 | 371 (FLQAHLHTA; listed as Homo sapiens) [compound 371] | – | ″++++″ (≥75% = ++++) | –
43 | 155 (RVANLHFPSV; listed as Homo sapiens) [compound 155] | – | ″+++″ (≥50% = +++) | –
44 | 192 (KMLDGASFTL; listed as Homo sapiens) [compound 192] | – | ″+++″ (≥50% = +++) | –
45 | 244 (SLFGGTEITI; listed as Homo sapiens) [compound 244] | – | ″+++″ (≥50% = +++) | –
46 | 456 (LLIGHLERV; listed as Homo sapiens) [compound 456] | – | ″+++″ (≥50% = +++) | –
47 | 362 (TLYGLSVLL; listed as Homo sapiens) [compound 362] | – | ″+++″ (≥50% = +++) | –
48 | 219 (KLSDIGITV; listed as Homo sapiens) [compound 219] | – | ″+++″ (≥50% = +++) | –
49 | 52 (FLLAHGLGFLL; listed as Homo sapiens) [compound 52] | – | ″++++″ (≥75% = ++++) | –
50 | 477 (ALLPASGQIAL; listed as Homo sapiens) [compound 477] | – | ″+++″ (≥50% = +++) | –
51 | 479 (SLFGNSGILENV; listed as Homo sapiens) [compound 479] | – | ″+++″ (≥50% = +++) | –
